Assay results reported in paper PMC3445539.

Legend:
mCherry-CENP-O (human) = mCherry-CENP-O (human) (UniProt Q9BU64); experiment: FRET or BRET; FLIM: donor fluorescence lifetime by time-correlated single photon counting at kinetochores of living HEp-2 cells, EGFP donor and mCherry acceptor
mCherry-CENP-P [1] = target: mCherry-CENP-P (UniProt Q6IPU0); experiment: as above
mCherry-CENP-P [2] = target: mCherry-CENP-P (UniProt Q6IPU0); experiment: fluorescence cross-correlation spectroscopy (FCCS); nucleoplasm free of kinetochores in living double-transfected U2OS cells, EGFP and mCherry fusions, 37°C

UniProt Q9BU64, sequence (Q9BU64 whole entry): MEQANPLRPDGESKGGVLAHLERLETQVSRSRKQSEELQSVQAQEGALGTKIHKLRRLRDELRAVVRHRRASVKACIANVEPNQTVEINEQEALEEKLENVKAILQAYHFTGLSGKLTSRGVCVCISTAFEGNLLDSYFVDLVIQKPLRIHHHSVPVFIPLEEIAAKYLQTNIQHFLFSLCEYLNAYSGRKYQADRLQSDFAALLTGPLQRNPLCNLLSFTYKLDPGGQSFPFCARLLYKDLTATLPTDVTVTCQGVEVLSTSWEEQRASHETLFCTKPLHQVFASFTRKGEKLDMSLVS

## CENP-P-EGFP (from UniProt Q6IPU0 1-288) (natural protein)
mCherry-CENP-O (human)
  donor fluorescence lifetime in the presence of the acceptor: 2.16 nsec

## CENP-Q-EGFP (from UniProt Q7L2Z9 1-268) (natural protein)
mCherry-CENP-P [1]
  donor fluorescence lifetime in the presence of the acceptor: 2.08 nsec

## EGFP-CENP-O
mCherry-CENP-P [2]; other: fluorescence cross-correlation spectroscopy (FCCS)
  percent hetero-dimers, the authors' corrected estimate: we estimate 40–60%

## EGFP-CENP-O (from UniProt Q9BU64 1-300) (natural protein)
mCherry-CENP-P [2]
  percent hetero-dimers, A(CC)/A(AC): 20 to 30%
  percent of the molecules co-migrating (cross-correlation amplitude over mCherry amplitude): 29%
